Source: PMC11164899, “A novel inhibitory BAK antibody enables assessment of non-activated BAK in cancer cells” (Cell Death and Differentiation, 2024)

T1: hBAKΔN22ΔC25Δcys (Homo sapiens, Δcys (cysteine to serine; position C166 from memory, not given))
T1 construct: BAK, human, lacking the N-terminal 22 residues and the C-terminal 25 residues (transmembrane anchor); wild-type cysteine residues replaced with serine; also called BAKΔTM; source: E. coli BL21 (DE3), purified (glutathione resin, HRV-3C cleavage, SEC Superdex S75)
T1 chain: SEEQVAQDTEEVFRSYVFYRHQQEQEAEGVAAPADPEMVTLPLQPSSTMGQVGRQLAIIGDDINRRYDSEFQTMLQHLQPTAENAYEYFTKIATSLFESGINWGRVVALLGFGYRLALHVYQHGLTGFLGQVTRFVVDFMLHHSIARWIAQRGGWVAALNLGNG

T2: hBAKΔN22ΔC25Δcys M60G (Homo sapiens, M60G | Δcys (cysteine to serine; position C166 from memory, not given))
T2 construct: BAK, human, ΔN22ΔC25, wild-type cysteine residues replaced with serine, M60G; also called hBAK M60G; BAK M60G; source: E. coli BL21 (DE3), purified (glutathione resin, HRV-3C cleavage, SEC Superdex S75)
T2 chain: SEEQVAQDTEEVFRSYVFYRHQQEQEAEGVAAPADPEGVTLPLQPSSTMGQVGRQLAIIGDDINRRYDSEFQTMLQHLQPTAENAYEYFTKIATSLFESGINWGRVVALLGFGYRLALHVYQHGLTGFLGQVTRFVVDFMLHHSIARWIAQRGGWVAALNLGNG

T3: hBAKΔN22ΔC25Δcys M60W (Homo sapiens, M60W | Δcys (cysteine to serine; position C166 from memory, not given))
T3 construct: BAK, human, ΔN22ΔC25, wild-type cysteine residues replaced with serine, M60W; also called hBAK M60W; BAK M60W; source: E. coli BL21 (DE3), purified (glutathione resin, HRV-3C cleavage, SEC Superdex S75)
T3 chain: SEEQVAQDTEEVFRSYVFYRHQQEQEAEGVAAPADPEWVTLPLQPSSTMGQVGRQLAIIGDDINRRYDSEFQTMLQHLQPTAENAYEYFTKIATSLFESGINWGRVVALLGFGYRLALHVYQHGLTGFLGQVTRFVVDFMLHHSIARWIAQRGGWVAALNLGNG

T4: mBAKΔN20ΔC25Δcys (Mus musculus, stabilised)
T4 construct: BAK, mouse, lacking the N-terminal 20 and the C-terminal 25 residues; wild-type cysteine residues replaced with serine; also called mouse BAK; source: E. coli BL21 (DE3), purified (glutathione resin, HRV-3C cleavage, SEC Superdex S75)
T4 chain: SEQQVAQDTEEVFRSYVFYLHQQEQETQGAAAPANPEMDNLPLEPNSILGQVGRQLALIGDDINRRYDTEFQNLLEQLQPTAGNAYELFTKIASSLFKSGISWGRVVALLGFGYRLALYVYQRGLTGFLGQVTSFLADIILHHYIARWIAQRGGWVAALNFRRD


Legend:
[1] = molecular target: T5, BAK, endogenous, in human leukaemia cell lines (Homo sapiens, UniProt Q16611); experiment: native gel or EMSA; untreated membrane fractions incubated with antibody on ice for 30 min, solubilized with 1% digitonin, BN-PAGE, blot for BAK (gel-shift); details: one partner purified
T5 construct: BAK, endogenous in blood cancer cell lines established from patients with ALL or AML; the methods list RS4;11, MOLM-13, KG-1, HL-60, OCI-AML3, MV4;11 and THP-1; source: endogenous, membrane fractions of human ALL and AML cell lines, solubilized in 1% digitonin
T5 sequence (Q16611 whole entry): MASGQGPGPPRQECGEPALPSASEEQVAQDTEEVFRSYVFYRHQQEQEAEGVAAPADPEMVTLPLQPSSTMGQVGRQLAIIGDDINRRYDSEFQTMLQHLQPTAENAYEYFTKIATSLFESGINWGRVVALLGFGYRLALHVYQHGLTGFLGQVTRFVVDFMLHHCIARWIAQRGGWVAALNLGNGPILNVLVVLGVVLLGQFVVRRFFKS

[2] = molecular target: T6, human BAK, full-length, in mitochondria-enriched membrane fractions of bak−/−bax−/− MEFs (Homo sapiens, UniProt Q16611); experiment: immunoprecipitation; membrane fractions of MEFs expressing hBAK, no cBID, solubilized in 1% digitonin, pre-cleared; Protein G Sepharose with 4 μg antibody, 4 °C, 1-2 h; blot for BAK; details: one partner purified
T6 construct: BAK, human, full-length; also called hBAK; source: stably expressed in SV40-immortalized bak−/−bax−/− MEFs; permeabilized cells or membrane fractions, solubilized in 1% digitonin for IP and BN-PAGE

hBAKΔN22ΔC25Δcys [3] = molecular target: T1, hBAKΔN22ΔC25Δcys; experiment: SPR; 14G6 (about 150 RU) captured on a Protein A chip; BAK injected in a threefold dilution series (0.45-1000 nM), single-cycle kinetics; 25 °C, DPBS + 0.005% Tween-20; 1:1 binding model; mean ± SD of three experiments; details: both partners purified
hBAKΔN22ΔC25Δcys M60G = molecular target: T2, hBAKΔN22ΔC25Δcys M60G; experiment: as above; details: both partners purified
hBAKΔN22ΔC25Δcys M60W = molecular target: T3, hBAKΔN22ΔC25Δcys M60W; experiment: as above; details: both partners purified
mBAKΔN20ΔC25Δcys = molecular target: T4, mBAKΔN20ΔC25Δcys; experiment: as above; details: both partners purified
hBAKΔN22ΔC25Δcys [4] = molecular target: T1, hBAKΔN22ΔC25Δcys; experiment: SEC; 14G6 Fab mixed with a 1.5-fold excess of BAKΔTM; Superdex 200 Increase 10/300 in TBS; complex of ca 65 kDa; details: both partners purified

binding result [1] | binding result [2] | Kd (hBAKΔN22ΔC25Δcys [3]) [nM] | koff (hBAKΔN22ΔC25Δcys [3]) [s⁻¹] | kon (hBAKΔN22ΔC25Δcys [3]) [M⁻¹ s⁻¹] | Kd (hBAKΔN22ΔC25Δcys M60G) [nM] | koff (hBAKΔN22ΔC25Δcys M60G) [s⁻¹] | kon (hBAKΔN22ΔC25Δcys M60G) [M⁻¹ s⁻¹] | Kd (hBAKΔN22ΔC25Δcys M60W) [nM] | koff (hBAKΔN22ΔC25Δcys M60W) [s⁻¹] | kon (hBAKΔN22ΔC25Δcys M60W) [M⁻¹ s⁻¹] | Kd (mBAKΔN20ΔC25Δcys) [nM] | koff (mBAKΔN20ΔC25Δcys) [s⁻¹] | kon (mBAKΔN20ΔC25Δcys) [M⁻¹ s⁻¹] | stoichiometry N (hBAKΔN22ΔC25Δcys [4]) | Binder
binds | binds | 10 | 7e-05 | 6000 | 0.6 | 7e-05 | 110000 | 9 | 5e-05 | 4900 | 1140 | 0.00092 | 810 | – | 14G6 antibody (antibody, V domains shown, mouse variable region, human constant region; The results call it a chimera with human constant regions; the immunoprecipitation methods call it '14G6 mouse monoclonal antibody'; Used as an AF488 conjugate for immunocytochemistry; also called clone 14G6; 14G6-AF488; source: mouse B cell cloning; recovered antibody variable regions expressed as chimeras containing human constant regions; copies: 2 …) VH: EVKLVESGAELVRPGTSVKVSCKASGYAFTNYLIEWVKQRPGQGLEWIGVINPGSGGTNYNEKFKGKATLTADKSSSTAYMQLTSLTSDDSAVYFCASPSLYGSFDYWGQGTTVTVSS VL: DIVMTQSHKFMSTSVGDRVSITCKASQDVGTAVAWYQQKPGQSPKLLIYWASTRHTGVPDRFTGSGSGTDFTLTISNVQSEDLADYFCQQYSSYRTFGGGTKLEIK
– | – | – | – | – | – | – | – | – | – | – | – | – | – | 1 | 14G6 Fab (Fab, V domains shown, Fab part of the heavy chain of m1; as the light chain of m1; also called Fab fragment of antibody 14G6; source: papain cleavage of the full-length antibody, purified by cation exchange (Mono S)) VH: EVKLVESGAELVRPGTSVKVSCKASGYAFTNYLIEWVKQRPGQGLEWIGVINPGSGGTNYNEKFKGKATLTADKSSSTAYMQLTSLTSDDSAVYFCASPSLYGSFDYWGQGTTVTVSS VL: DIVMTQSHKFMSTSVGDRVSITCKASQDVGTAVAWYQQKPGQSPKLLIYWASTRHTGVPDRFTGSGSGTDFTLTISNVQSEDLADYFCQQYSSYRTFGGGTKLEIK
